US20050260697

B1: caspase-3 (protein)
chain: SGISLDNSYKMDYPEMGLCIIINNKNFHKSTGMTSRSGTDVDAANLRETFRNLKYEVRNKNDLTREEIVELMRDVSKEDHSKRSSFVCVLLSHGEEGIIFGTNGPVDLKKITNFFRGDRCRSLTGKPKLFIIQACRGTELDCGIETDSGVDDDMACHKIPVEADFLYAYSTAPGYYSWRNSKDGSWFIQSLCAMLKQYADKLEFMHILTRVNRKVATEFESFSFDATFHAKKQIPCIVSMLTKELYFYH
B2: calpain-1 (protein)
chain: SEEIITPVYCTGVSAQVQKQRARELGLGRHENAIKYLGQDYEQLRVRCLQSGTLFRDEAFPPVPQSLGYKDLGPNSSKTYGIKWKRPTELLSNPQFIVDGATRTDICQGALGDCWLLAAIASLTLNDTLLHRVVPHGQSFQNGYAGIFHFQLWQFGEWVDVVVDDLLPIKDGKLVFVHSAEGNEFWSALLEKAYAKVNGSYEALSGGSTSEGFEDFTGGVTEWYELRKAPSDLYQIILKALERGSLLGCSIDISSVLDMEAITFKKLVKGHAYSVTGAKQVNYRGQVVSLIRMRNPWGEVEWTGAWSDSSSEWNNVDPYERDQLRVKMEDGEFWMSFRDFMREFTRLEICNLTPDALKSRTIRKWNTTLYEGTWRRGSTAGGCRNYPATFWVNPQFKIRLDETDDPDDYGDRESGCSFVLALMQKHRRRERRFGRDMETIGFAVYEVPPELVGQPAVHLKRDFFLANASRARSEQFINLREVSTRFRLPPGEYVVVPSTFEPNKEGDFVLRFFSEKSAGTVELDDQIQANLPDEQVLSEEEIDENFKALFRQLAGEDMEISVKELRTILNRIISKHKDLRTKGFSLESCRSMVNLMDRDGNGKLGLVEFNILWNRIRNYLSIFRKFDLDKSGSMSAYEMRMAIESAGFKLNKKLYELIITRYSEPDLAVDFDNFVCCLVRLETMFRFFKTLDTDLDGVVTFDLFKWLQLTMFA

Experiments:
[1] = biological target: human cardiac Troponin-I3, P19429
Sequence of human cardiac Troponin-I3, P19429 (P19429 whole entry, looked up): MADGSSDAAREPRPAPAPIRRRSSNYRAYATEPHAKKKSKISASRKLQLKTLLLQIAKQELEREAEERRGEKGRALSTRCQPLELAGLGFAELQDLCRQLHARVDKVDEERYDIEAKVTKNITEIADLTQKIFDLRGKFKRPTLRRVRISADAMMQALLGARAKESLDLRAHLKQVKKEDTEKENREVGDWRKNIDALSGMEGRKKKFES

[2] = biological target: human cardiac Troponin-T2, P45379
[3] = biological target: human muscle Troponin-T1, P13805
Sequence of human muscle Troponin-T1, P13805 (P13805 whole entry): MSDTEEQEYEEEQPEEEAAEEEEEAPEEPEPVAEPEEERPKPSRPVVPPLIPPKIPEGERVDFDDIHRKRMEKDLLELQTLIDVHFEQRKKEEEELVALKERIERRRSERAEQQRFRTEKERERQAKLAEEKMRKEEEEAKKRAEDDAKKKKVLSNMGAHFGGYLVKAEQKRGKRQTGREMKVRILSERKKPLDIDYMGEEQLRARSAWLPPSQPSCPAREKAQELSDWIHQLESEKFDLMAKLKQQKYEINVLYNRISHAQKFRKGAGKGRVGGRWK

[4] = biological target: human muscle Troponin-T3, P45378
Sequence of human muscle Troponin-T3, P45378 (P45378 2-269): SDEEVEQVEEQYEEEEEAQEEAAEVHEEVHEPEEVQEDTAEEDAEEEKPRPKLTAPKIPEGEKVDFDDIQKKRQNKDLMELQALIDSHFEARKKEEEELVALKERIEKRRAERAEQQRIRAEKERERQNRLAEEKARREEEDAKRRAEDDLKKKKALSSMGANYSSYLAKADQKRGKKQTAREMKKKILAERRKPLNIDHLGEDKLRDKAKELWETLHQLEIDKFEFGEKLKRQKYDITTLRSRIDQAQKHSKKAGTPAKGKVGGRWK

Protein | in vitro protease digestion, breakdown products on gels [1] | in vitro protease digestion, breakdown products on gels [2] | stated: cleaves (breakdown bands on a gel) [2] | in vitro protease digestion, breakdown products on Coomassie stained membrane and Western blot [3] | stated: cleaves (breakdown bands on a stained membrane and a blot) [3] | in vitro protease digestion, breakdown products on Coomassie stained membrane and Western blot [4] | stated: cleaves (breakdown bands on a stained membrane and a blot) [4]
B1 | human cardiac Troponin-T2 and Troponin-13 were cleaved by calpain-2 and caspase-3 proteases, producing unique breakdown products | human cardiac Troponin-T2 and Troponin-13 were cleaved by calpain-2 and caspase-3 proteases, producing unique breakdown products | the Caspase-3 lane shows a band d at the 25 kDa mark that is absent from the untreated lane and the Calpain-2 lanes; the Troponin-T2 band at 30 kDa is largely kept; no bands a, b, c |  |  |  | 
B2 |  |  |  | human muscle Troponin-T1/3 was digested by calpain-1 protease, producing unique breakdown products | Coomassie panel: the band at 35 kDa in the TnT lane weakens in the +Calpain-I lanes with time and a band near the 15 kDa mark appears; band B of the blot is mapped to TnT1 (new N-terminus AEQKRGKRQTGR) | human muscle Troponin-T1/3 was digested by calpain-1 protease, producing unique breakdown products | Coomassie panel: the band at 35 kDa in the TnT lane weakens in the +Calpain-I lanes with time; band A of the blot, just below the intact band, is mapped to TnT3 (new N-terminus APKIPEGEK)
